# B1: Co-chaperonin GroES (Escherichia coli (strain K12)), P0A6F9 (parent)
# chain: MNIRPLHDRVIVKRKEVETKSAGGIVLTGSAAAKSTRGEVLAVGNGRILENGEVKPLDVKVGDIVIFNDGYGVKSEKIDNEEVLIMSESDILAIVEA
# Variants of: B1
# Settings: with ch60_ecoli groEL
row,Variant,effect of a mutation on the interaction
1,MNIRPLHDRVIVKRKEVETKSAGGIVLTCSAAAKSTRGEVLAVGNGRILENGEVKPLDVKVGDIVIFNDGYGVKSEKIDNEEVLIMSESDILAIVEA [G29C],increasing interaction strength
2,MNIRPLHDRVIVKRKEVETKSAGGIVLTGCAAAKSTRGEVLAVGNGRILENGEVKPLDVKVGDIVIFNDGYGVKSEKIDNEEVLIMSESDILAIVEA [S30C],increasing interaction strength
3,MNIRPLHDRVIVKRKEVETKSAGGIVLCGSAAAKSTRGEVLAVGNGRILENGEVKPLDVKVGDIVIFNDGYGVKSEKIDNEEVLIMSESDILAIVEA [T28C],increasing interaction
